Assay [1] addresses T1, human EpCAM antigen on Kato III cells or human EpCAM transfected CHO cells (human, UniProt P16422 24-265).
T1 sequence: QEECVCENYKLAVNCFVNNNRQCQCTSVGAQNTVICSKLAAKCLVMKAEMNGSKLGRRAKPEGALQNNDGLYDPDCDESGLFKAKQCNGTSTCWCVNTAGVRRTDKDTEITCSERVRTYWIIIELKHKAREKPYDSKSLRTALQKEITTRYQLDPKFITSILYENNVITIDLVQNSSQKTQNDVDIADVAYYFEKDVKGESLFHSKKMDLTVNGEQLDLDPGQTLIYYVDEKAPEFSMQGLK
Description: cell-based or functional assay.

The target in assay [2] is cynomolgus CD3 antigen on cynomolgus PBMC / macaque T cells (Macaca fascicularis (cynomolgus), UniProt Q95LI5 22-117; Q95LI7 23-110; Q95LI8 22-103). Description: cell-based or functional assay.
Assay [3] concerns the target T2, cynomolgus EpCAM antigen on transfected CHO cells (cynomolgus, UniProt Q1WER1 24-265 (rhesus entry)).
T2 construct: 48 holds the extracellular portion
T2 sequence: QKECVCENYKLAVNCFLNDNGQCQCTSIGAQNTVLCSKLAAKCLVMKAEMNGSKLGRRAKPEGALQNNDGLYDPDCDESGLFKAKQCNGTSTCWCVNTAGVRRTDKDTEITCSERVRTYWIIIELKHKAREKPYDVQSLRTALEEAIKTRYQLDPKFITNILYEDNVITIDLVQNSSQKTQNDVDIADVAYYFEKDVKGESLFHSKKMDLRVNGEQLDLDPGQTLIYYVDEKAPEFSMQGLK
In words: FACS on cynomolgus EpCAM transfected CHO cells, anti-His detection. The source says:
FIG. 8: FACS assay for binding of 2G8LH×SEQ ID NO. 12, 2G8LH×SEQ ID NO. 10, 2G8LH×SEQ ID NO. 16, 2G8LH×SEQ ID NO. 14, 2G8HL×SEQ ID NO. 12, 2G8HL×SEQ ID NO. 10, 2G8HL×SEQ ID NO. 16 and 2G8HL×SEQ ID NO. 14 on Kato III (FIG. 8A) cells or cynomolgus EpCAM transfected CHO cells (FIG. 8B) and HPB-ALL cells. Antigen binding was clearly detectable for the anti EpCAM specificities as well as for the anti CD3 specificities. As a negative control for binding to cynomolgus EpCAM, the 5-10LH×SEQ ID NO.
Binding of the bifunctional constructs from cell culture supernatants or binding of purified bifunctional constructs to the human EpCAM antigen on Kato III cells or cynomolgus EpCAM transfected CHO cells and to the CD3 antigen on HPB-ALL cells was tested using an FACS assay. For that purpose 2.5×10⁵ cells were incubated with 50 μl supernatant or with 5 μg/ml of the purified constructs in 50 μl PBS with 2% FCS. The binding of the constructs was detected with an anti-His antibody (Penta-His Antibody, BSA free, obtained from Qiagen GmbH, Hilden, FRG) at 2 μg/ml in 50 μl PBS with 2% FCS. […] The samples were measured on a FACSscan (BD biosciences, Heidelberg, FRG). Antigen binding was clearly detectable for the anti EpCAM specificities as well as for the anti CD3 specificities (see FIG. 8). As a negative control for binding to cynomolgus EpCAM, the 5-10LH×SEQ ID NO. […] The 5-10LH part only binds to human EpCAM.

The target in assay [4] is T3, human CD3 antigen on HPB-ALL cells or human T cells (human, UniProt P07766 22-126; P09693 23-111; P04234 22-103).
T3 construct: natural CD3 complex on cells (HPB-ALL, human PBMC T cells); also called human CD3 complex
Description: FACS, FITC-conjugated antibody on HPB-ALL cells. The procedure:
Binding of an Ig comprising SEQ ID NOs. 2 and 4, an Ig comprising SEQ ID NOs. 6 and 8 and mAb FN18 to the cynomolgus CD3 antigen on cynomolgus PBMC and to the human CD3 antigen on HPB-ALL cells (DSMZ No. ACC 483) was tested using an FACS assay. For that purpose, 2.5×10⁵ cells were incubated with the FITC-conjugated Ig comprising SEQ ID NOs. 6 and 8 and the FITC-conjugated Ig comprising SEQ ID NOs. 2 and 4 diluted 1:25 in 50 μl PBS with 2% FCS, respectively. The incubation with the FITC-conjugated mAb FN18 antibody (Biosource International) was performed in 50 μl of undiluted antibody. The samples were measured on a FACSscan (BD biosciences, Heidelberg, FRG). Strong antigen binding on human as well as on cynomolgus cells was detected for the Ig comprising SEQ ID NOs. 2 and 4. For the Ig comprising SEQ ID NOs. 6 and 8, strong binding to human cells but weaker binding to cynomolgus cells was observed. For FN18, strong binding to cynomolgus cells could be observed whereas no binding to human cells could be detected.
For orientation: In flow cytometry, cells or beads pass a laser one at a time.

For assay [5], the target named is T2, cynomolgus EpCAM antigen on transfected …. Description: FACS on cynomolgus EpCAM transfected CHO cells against untransfected cells. The procedure: FIG. 7: FACS assay for the detection of the cynomolgus EpCAM antigen on transfected CHO cells. Supernatants of three different anti human EpCAM hybridomas (M79, 3B10, 2G8) were tested for binding.
To generate a cell line positive for cynomolgus EpCAM, a clone of the aforementioned coding sequence of the cynomolgus EpCAM antigen subcloned into pEFDHFR with a verified nucleotide sequence was transfected into DHFR deficient CHO cells for eukaryotic expression of the construct as described in Kaufmann R. J. (1990) Methods Enzymol. 185, 537-566). Gene amplification of the construct was induced by increasing concentrations of MTX to a final concentration of up to 500nM MTX. The transfected cells were then tested for expression of cynomolgus EpCAM using an FACS assay. For that purpose, a number of 2.5×10⁵ cells was incubated with 50 μl supernatant three different mouse anti human EpCAM hybridomas (M79—Fogler et al., Cancer Res. 48 (1988); p. 6303-8; 3B10—Passlick et al. Int. J. Cancer 87 (2000), p. 548-552; 2G8—Balzar et al., J. Mol. Med. 77 (1999), p. 699-712). […] The samples were measured on a FACSscan (BD biosciences, Heidelberg, FRG). The anti EpCAM antibody 2G8 was recognized as cross-species specific and the expression of cynomolgus EpCAM was confirmed (see FIG. 7).

Sequence of cynomolgus CD3 antigen on cynomolgus PBMC / macaque T cells (Q95LI5 22-117, chain 1 of 3): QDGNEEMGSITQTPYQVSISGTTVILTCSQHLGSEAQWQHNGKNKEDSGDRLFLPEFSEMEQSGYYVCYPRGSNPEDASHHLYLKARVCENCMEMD
Sequence of cynomolgus CD3 antigen on cynomolgus PBMC / macaque T cells (Q95LI7 23-110, chain 2 of 3): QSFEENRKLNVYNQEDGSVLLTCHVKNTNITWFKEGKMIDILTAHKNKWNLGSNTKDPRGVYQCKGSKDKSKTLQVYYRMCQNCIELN
Sequence of cynomolgus CD3 antigen on cynomolgus PBMC / macaque T cells (Q95LI8 22-103, chain 3 of 3): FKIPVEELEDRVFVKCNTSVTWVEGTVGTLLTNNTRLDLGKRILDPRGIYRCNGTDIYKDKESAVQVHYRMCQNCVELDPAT
T3 sequence (P07766 22-126 limits assumed, chain 1 of 3): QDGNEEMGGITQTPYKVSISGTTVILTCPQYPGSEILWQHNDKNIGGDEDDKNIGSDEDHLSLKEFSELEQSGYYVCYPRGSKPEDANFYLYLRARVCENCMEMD
T3 sequence (P09693 23-111 limits assumed, chain 2 of 3): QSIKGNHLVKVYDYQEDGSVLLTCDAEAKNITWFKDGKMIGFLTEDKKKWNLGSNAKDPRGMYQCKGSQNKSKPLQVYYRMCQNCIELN
T3 sequence (P04234 22-103 limits assumed, chain 3 of 3): as the sequence (Q95LI8 22-103, chain 3 of 3) above, with V5I, K15N, V20I, T32S, N33D, N34I, A64T, N74S counted along it

B1: 5-10LH×SEQ ID NO. 10 bispecific single chain antibody (bispecific antibody)
chain: ELVMTQSPSSLTVTAGEKVTMSCKSSQSLLNSGNQKNYLTWYQQKPGQPPKLLIYWASTRESGVPDRFTGSGSGTDFTLTISSVQAEDLAVYYCQNDYSYPLTFGAGTKLEIKGGGGSGGGGSGGGGSEVQLLEQSGAELVRPGTSVKISCKASGYAFTNYWLGWVKQRPGHGLEWIGDIFPGSGNIHYNEKFKGKATLTADKSSSTAYMQLSSLTFEDSAVYFCARLRNWDEPMDYWGQGTTVTVSSGGGGSEVKLLESGGGLVQPKGSLKLSCAASGFTFNTYAMNWVRQAPGKGLEWVARIRSKYNNYATYYADSVKDRFTISRDDSQSILYLQMNNLKTEDTAMYYCVRHGNFGNSYVSWFAYWGQGTLVTVSAGGGGSGGGGSGGGGSQAVVTQESALTTSPGETVTLTCRSSTGAVTTSNYANWVQEKPDHLFTGLIGGTNKRAPGVPARFSGSLIGDKAALTITGAQTEDEAIYFCALWYSNLWVFGGGTKLTVLHHHHHH
Turning to B1, the “EC50 (half maximal killing), FACS-based cytotoxicity, Kato III target cells, human PBMC effector cells” value in assay [1] was determined as 0.0058 ng/mL. Moreover, the “EC50 (half maximal killing), FACS-based cytotoxicity, Kato III target cells, cynomolgus PBMC effector cells” value in assay [2] was determined as 0.052 ng/mL. In addition, in assay [3], the binding result is “no binding (tested: 50 µl supernatant or 5 µg/ml)”.

B2: monoclonal antibody (mAb) FN-18 (antibody, V domains shown)
VH: QVQLQQSEAELARPGASVKMSCKASGYTFTDYTIHWLKQRPGQGLDWIGYFNPSSESTEYNRKFKDRTILTADRSSTTAYMQLSSLTSEDSAVYYCSRKGEKLLGNRYWYFDVWGAGTSVTVSS
VL: DIVMSQSPSSLAVSVGEKVTMSCKSSQSLLYSSNQKNYLAWYQQKPGQSPKLLINWASTRESGVPDRFTGSGSRTDFTLTISSVKAEDLAVYFCQQFYSYPPTFGGGTKLEIK
notes: tested as bought FITC-conjugated antibody (Biosource International)
Regarding B2, in assay [4], the binding result is on record as “no binding (tested: 50 µl of undiluted antibody)”.

B3: anti EpCAM antibody 2G8 (antibody, V domains shown)
VH: EVQLQQSGAELVRSGASVKLSCTASGFNIKDYYLHWVKQRPEQGLEWIAWIDLENGDIKYAPKFQGKATITADTSSNTAYLQLSSLTSEDTAVYYCNPYYYGSNYDYAMDYWGQGTSVTVSS
VL: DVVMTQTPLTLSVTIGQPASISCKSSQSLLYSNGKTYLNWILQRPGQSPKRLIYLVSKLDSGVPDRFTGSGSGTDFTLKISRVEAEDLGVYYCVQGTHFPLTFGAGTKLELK
notes: mouse hybridoma supernatant; also called 2G8 hybridoma
Regarding B3, the binding result in assay [5] is listed as “binds”.

Source of the values: patent publication US20090252683A1 (Amgen, published 2009).
